Results from the nanobody polyreactivity screen of Harvey et al. (2022).

test: yeast display, Sf9 membrane polyspecificity reagent, FACS + sequencing; frameworks hold sequencing errors
Outline: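 Galactose-induced (36–48 hours) yeast carrying a synthetic nanobody display library were exposed to 10% biotinylated, detergent-solubilized Sf9 membrane reagent at 4 °C for 1 hour. FACS followed streptavidin microbead enrichment, using low and high (top ~1%) gates for expression (anti-HA) and reagent binding (streptavidin). Colony PCR, MiSeq 2 × 250 sequencing and CDR-length filtering followed. Labels for polyreactivity reflect the gate of origin.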

Sequence	polyreactivity (PSR sort gate)
QVQLVESGGGLVQAGGSLRLSCAASGRTLIFYAMGWYRQAPGKERELVAAISGSGGRTYYADSVKGRFTISRDNAKNTVYLQMNSLKPEDTAVYYCNRRHSYPYDYWGQGTQVTVSS	high polyreactivity
QVQLVESGGGLVQAGGSLRLSCAASGRTLIVNTMGWYRQAPGKEREFVAAIFSGASTYYAYSVKGRFTISRDNAKNTVYLQMNSLKPEDTAVYYCAVRNWHLIKYLHGYTRYGYWGQCTQVTVSS	low polyreactivity
QVQLVESGGGLVQAGGSLRLSCAASGRTLKINAMGWYRQAPGKERELVARISAGRTYYADSVKGRFTISRDNAKNTVYLQMNSLKPEDTAVYYCARRTNRPPWGFEYWGQGTQVTVSS	high polyreactivity
QVQLVESGGGLVQAGGSLRLSCAASGRTLKVYAMGWYRQAPGKERELVAAINNGGSTNYADSVKGRFTISRDNAKNTVYLQMNSLKPEDTAVYYCNAVYYARYRNYTYYYWGQGTQVTVSS	high polyreactivity
QVQLVESGGGLVQAGGSLRLSCAASGRTLNRYAMGWYRQAPGKERELVAAIRWRGASTYYADSVKGRFTISRDNAKNTVYLQMNSLKPEDTAVYYCAKRFFASTPNFDYWGQGTQVTVSS	high polyreactivity
QVQLVESGGGLVQAGGSLRLSCAASGRTLPFYAMGWYRQAPGKERELLAAINRSGGSTYYADSVKGRFTISRDNAKNTVSLQMNILKPEDTAVYYGNNVTVPGLGYYPPSYSNGHWGQGTQVSVSS	high polyreactivity
QVQLVESGGGLVQAGGSLRLSCAASGRTLPYNAMGWYRQAPGKERELVAAISKRGSSTYYADSVKGRFTISRDNAKNTVYLQMNSLKPEDTAVYYCAKGGSFYYWGQGTQVTVSS	high polyreactivity
QVQLVESGGGLVQAGGSLRLSCAASGRTLQTYVMGWYRQPPGKERELVAAITRGGGSTYYADSVKGRFTISRDNAKNTVYLQMNSLKPEDTAVYYCAASALRFNSRFSHWYNYWGQGTQVTVSS	high polyreactivity
QVQLVESGGGLVQAGGSLRLSCAASGRTLRINTMGWYRQAPGKERELVADITSSGGSTYYADSVKGRFTISRDNAKNTVYLQMNSLKPEDTAVYYCAADPIDIYYWEFDYLGQGTQVTVSS	low polyreactivity
QVQLVESGGGLVQAGGSLRLSCAASGRTLRKYAMGWYRQAPGKERELVAAITWTGGTTYYADSVKWRFTISRDNAKNTVYLQMNSLKPEDTAVYYCATVRSYGYGYDFWGQGTQVTVSS	high polyreactivity
QVQLVESGGGLVQAGGSLRLSCAASGRTLRLYAMGWYRPAPGKERELVASITGRGGSTYYADSVKGRFTISRDNAKNTVYLQMNSLKPEDTAVYYCAKLPLSTAMGYWGQGTQVTVSS	low polyreactivity
QVQLVESGGGLVQAGGSLRLSCAASGRTLRSYAMGWYRQAPGKERELVARISSGGSTTYADSVKGRFTISRDNAKNTVYLQMNSLKPEDTAVYYCNAQLVYTVYRLRYYHWGQGTQVTVSS	high polyreactivity
QVQLVESGGGLVQAGGSLRLSCAASGRTLSLYAMGWYRQAPGKERELVATISKSGGSTDYADSVKGRFTISRDNAKNTVYLQMNSLKPEDTAVYYCAADANSWFTSYQVYGSEFDYWGQGTQVTVSS	low polyreactivity
QVQLVESGGGLVQAGGSLRLSCAASGRTLSNYAMGWYRQAPGKERELVAAISSSGSTNYADSVKGRFTISRDNAKNTVYLQMNSLKPEDTAVYYCAAESWFLRWYRYDYWGQGTQVTVSS	low polyreactivity
QVQLVESGGGLVQAGGSLRLSCAASGRTLSYYAMGWYRQAPGKEREFVAAITGSGGSTYYADSVKGRFTISRDNAKNNVYLQMNSLKPEDTAVYYCNATGLGVFTVEYYYWGQGTQVTVSS	low polyreactivity
QVQLVESGGGLVQAGGSLRLSCAASGRTLTRYTMGWYRQAPGKERELVATISRSGGNTHYADSVKGRFTISRDNAKNTVYLQMNSLKPEDTAVYYCNAVRYALYGYDYWGQGTQVTVSS	high polyreactivity
QVQLVESGGGLVQAGGSLRLSCAASGRTLVDYGMVWYRQAPGKERELVAVITSGGSTYYADSVKGRFTISRDNAKNTVYLQLNSLIQEDTAVYYCAADNCYRGYHSPYDYWGQGTQVTVSS	low polyreactivity
QVQLVESGGGLVQAGGSLRLSCAASGRTLVLYAMGWYRQAPGKERELVAAITWSGDSTYYADSVKGRFTISRDNAKNTVYLQMNSLKPEDTAVYYCAADKSYRRVYYWGQGTQVTVSS	low polyreactivity
QVQLVESGGGLVQAGGSLRLSCAASGRTLVPYAMGWYRQAPGKERELVAAISNVSSTNYADSVKGRFTISRDNAKNTGYLQMNSLKPEDTAVYYCNAVGVPSEYYSWGQGTQVTVSS	low polyreactivity
QVQLVESGGGLVQAGGSLRLSCAASGRTLWSYTMGWYRQAPGKESELVARITIGGSTNYADSVKGRFTISRDNAKNTVYLQMNSLKPEDTAVYYCNARASYSYGSYLSKSYGYDYWGQGTQVTVSS	high polyreactivity
QVQLVESGGGLVQAGGSLRLSCAASGRTLYDYAMEWYRQAPGKERELVAGITSGDSTYYADSVKGRFTISRDNAKNTVDLQMNSLKPEDTAVYYCAADSDTFYYTGYDYDYWGQGTQGTVSS	low polyreactivity

Sequence	polyreactivity (PSR sort gate)
QVQLVESGGGLVQAGGSLRLSCAASGRTLYQYAMGWYRQAPGKERELVAAITWNGGSTYYADSVKGRFTISRDNAKNTVYLQMNSLKPEDTAVYYCAADTVRPWYAYKAHDYWGQGTQVTVSS	low polyreactivity
QVQLVESGGGLVQAGGSLRLSCAASGRTLYRYAMGWYRQAPGKERELVAAIRSGGRTNYSDSVKGRFTISRDNAKNTVYLQMNSLKPEDTAVYYCAARTLRYPSTYDYWGQGTQVTVSS	high polyreactivity
QVQLVESGGGLVQAGGSLRLSCAASGRTLYRYAMGWYRQAPGKERELVATITTGGSTNYADSVKGRFTISRDNAKNTVYLQMNSLKPEDTAVYYCNAGILSRWVRKYYYWGQGTQVTVSS	low polyreactivity
QVQLVESGGGLVQAGGSLRLSCAASGRTLYRYAMGWYRQAPGKERELVAVISWNAVGTYYADSVKGRFTISRDNAKNTVYLQMNSLKPEDTAVYYCAARKRVASQGYIRYNYWGQGTQVTVSS	high polyreactivity
QVQLVESGGGLVQAGGSLRLSCAASGRTLYSNAMGWYRQSPGKERELVAAISSRGGRTYYADSVKGRFTISRDNAKNTVYLQMNSLKPVDTAVYYCNAAYGTGRRQAKSDYWGQGTQVTVSS	high polyreactivity
QVQLVESGGGLVQAGGSLRLSCAASGRTLYYNTMGWYRPAPGKERELVSSIRWDGGRTYYADSVKGRFTISRDNAKNTVYLQMNSLKPEDTAVYYCAKDGCYYYGTYAYDGCFDYWGQGTQVTVSS	low polyreactivity
QVQLVESGGGLVQAGGSLRLSCAASGRTLYYYAMGWYRQEPGKERELVAAISWSGGRTYYADSVKGRFTISRDNAKNTVYLQMNSLKAEDTAVYYCAAQYISRGYTVDYWGQGTQVTVSS	high polyreactivity
QVQLVESGGGLVQAGGSLRLSCAASGRTNSFYAMGWYRQAPGKERELVAAISRGGTTNYADSVKGRFTISRDNAKNTVYLQMNSLKPEDTAVYYCAASYFRRGFYSIYEYDYWGQGTQVTVSS	low polyreactivity
QVQLVESGGGLVQAGGSLRLSCAASGRTQAFHAMGWYRQAPGKERELVAVIRNGTSTNYADSVKGRFTISRDNAKNTVYLQMNSLKPEDTAVYYCNVPYYLPSYLSGYDYWGQGTQVTVSS	low polyreactivity
QVQLVESGGGLVQAGGSLRLSCAASGRTQRYYAMGWYRQAPRKERELVAAITKSGGSTYYADSVKGRITISRDNAKNTVYLQMYSLKPEDTAVYYFNKVTYSRAQYIGGDGYYWGQGTQVTVSS	high polyreactivity
QVQLVESGGGLVQAGGSLRLSCAASGRTQSRYTMGWYRQAPGKERELVAAISTSGSTYYADSVKGRFTISRDNAKNTVYLQMNSLKPEDTAVYYCNAVRRYLQYATGYDYWGQGTQVTVSS	high polyreactivity
QVQLVESGGGLVQAGGSLRLSCAASGRTQYKYAMGWYRQAPGKERELVATISSGGRTKYADSVKGRFTISRDNAKNTVDLQMNSLKPEDTAVYYCAAQNRPRYYSGDYWGQGTQVTVSS	low polyreactivity
QVQLVESGGGLVQAGGSLRLSCAASGRTSAINAMGWYRQAPGKERELVADITRTGGTYADSVKGRFTISRDNAKNTVYLQMNSLKPEDTAVYYCAAVGPWRFDYWGQGTQVTVSS	high polyreactivity
QVQLVESGGGLVQAGGSLRLSCAASGRTSDEYAMGWYRPAPGKERELVAAITSGGSTNYADSVKGRFTISRDNAKNTVYLQMNSLKPEDTAVYYCAADNIRTWRPIYDYWGQGTQVTVSS	low polyreactivity
QVQLVESGGGLVQAGGSLRLSCAASGRTSEIYTMGWYRQAPGKERELVASINTNYADSVKGRFTISRDNAKNTVYLQMNSLKPEDTAVYYCNADDTIEFNYWGQGTQVTVSS	low polyreactivity
QVQLVESGGGLVQAGGSLRLSCAASGRTSFYNAMGWYRQAPGKERELVAAISYRGTRTYYADSVKGRFTISRDNAKNTVYLQMNSLKPEDTAVYYCAKDSGYYTADDYDYWGQGTQVTVSS	low polyreactivity
QVQLVESGGGLVQAGGSLRLSCAASGRTSGFNTMGWYRQAPGKERELVAAISFSGGSTYYADSVKGRFTISRDNAKNTGYLQMNSLKPEDTAVYYCAAELERDEEYDYWGQGTQVTVSS	low polyreactivity
QVQLVESGGGLVQAGGSLRLSCAASGRTSGNYAMGWYRQAPGKERELVAAIRYSGSSTFYADSVKGRFTISRDNAKNTVYLQMNSLKPEDTAVYYCARDIRRKGFRYDYWGQGTQVTVSS	high polyreactivity
QVQLVESGGGLVQAGGSLRLSCAASGRTSKVYAMGWYRQAPGKERELVARITSSGVRTYYADSVKGRFTISRDNAKNTVYLQMNRLKPEDTAVYYCAKDARALWLHSGIYDYWGQGTQVTVSS	low polyreactivity
QVQLVESGGGLVQAGGSLRLSCAASGRTSLAYAMGWYRQAPGKERELVAGITSGGNTNYADSVKGRFTISCDNAKNTVYLQMNSLKPEDTAVYSCNKKKRWQWYSESVLDYLGFYSWGQGTQVTVSS	low polyreactivity
